Changes are numbered by the printed parent chain. Names and notes keep the numbering of the source.
B1: N269W: Arabidopsis FatA acyl-ACP thioesterase variant, substitution N269W relative to SEQ ID NO: 1 (protein, listed as Arabidopsis thaliana)
chain: MLKLSCNVTDSKLQRSLLFFSHSYRSDPVNFIRRRIVSCSQTKKTGLVPLRAVVSADQGSVVQGLATLADQLRLGSLTEDGLSYKEKFVVRSYEVGSNKTATVETIANLLQEVGCNHAQSVGFSTDGFATTTTMRKLHLIWVTARMHIEIYKYPAWGDVVEIETWCQSEGRIGTRRDWILKDSVTGEVTGRATSKWVMMNQDTRRLQKVSDDVRDEYLVFCPQEPRLAFPEENNRSLKKIPKLEDPAQYSMIGLKPRRADLDMNQHVNWVTYIGWVLESIPQEIVDTHELQVITLDYRRECQQDDVVDSLTTTTSEIGGTNGSATSGTQGHNDSQFLHLLRLSGDGQEINRGTTLWRKKPSS
B2: A144Y: Arabidopsis FatA acyl-ACP thioesterase variant, substitution A144Y relative to SEQ ID NO: 1 (protein, listed as Arabidopsis thaliana)
chain: B1 chain with A144Y, W269N
B3: A118V: Arabidopsis FatA acyl-ACP thioesterase variant, substitution A118V relative to SEQ ID NO: 1 (protein, listed as Arabidopsis thaliana)
chain: B1 chain with A118V, W269N

Experiment: FatA enzymatic kinetic parameters with oleoyl-CoA as substrate
Type: biochemical
Conditions: Michaelis-Menten; for Km: read-out: Km (μM) - best fit
Method: For the determination of FatA enzymatic kinetic parameters with oleoyl-CoA as substrate, assays are carried out essentially as described above for the testing of inhibitor compounds but with some changes to the method as follows. Oleoyl CoA is omitted from the assay master mix and added as a separate component to achieve final concentration of 40 μM, 23.5 μM. 13.8 μM, 8.1 μM, 4.8 μM, 2.8 μM and 1.7 μM (i.e. 1.7× dilution scheme). The level of enzymatic activity is determined from the slope of the progress curve (initial linear rates) using assay values measured at 0, 20, 40, 60, 90 and 120 s after addition of the enzyme. Kinetic parameters are then calculated using the Michaelis-Menten model as implemented in GraphPad Prism software.
FatA variant enzymes were prepared from 1 L E coli grows and assays carried out to determine enzyme kinetics as described in Example 1.

Molecule | kcat (s^−1) - best fit [s⁻¹] | Km [µM]
B1 | 0.7 | 1
B2 | 11.5 | 3.9
B3 | 4.5 | 2.4

Source: patent US12173301B2, “Weed control methods and related compositions and plants” (Syngenta Crop Protection AG, priority 2019, dated 2024)
